In publication PMC2156102:

Experiments:
[1] = target: LexABD-Rac1G12V (fusion of the LexA DNA binding domain with Drosophila Rac1 G12V) (Drosophila) (UniProt P40792); assay: two-hybrid; same fusions; quantification of ß-galactosidase activity in liquid assays on total protein extracts, three measurements
[2] = target: LexABD-Rac1G12V (fusion of the LexA DNA binding domain with Drosophila Rac1 G12V) (UniProt P40792); assay: yeast two-hybrid, ß-galactosidase activity in total protein extracts; details: parent: est. 6.4; read off a plot

Substance | response (ß-Galactosidase units) [2] | fold lower interaction (ß-galactosidase activity) than wild-type LbGAP [1] | further results
GAL4AD-LbGAP (fusion of the GAL4 activation domain with LbGAP) (natural protein) | – | – | ß-galactosidase activity relative to that of LbGAP with Rac2G12V [1]: 2 fold
GAL4AD-LbGAP (fusion of the GAL4 activation domain with LbGAP) K111A | 0.38 | – | –
GAL4AD-LbGAP (fusion of the GAL4 activation domain with LbGAP) R115A | 0.34 | – | –
LbGAPR74A (GAL4 activation domain fusion) (natural protein) | – | 3 fold | –
LbGAPS190A (GAL4 activation domain fusion) (natural protein) | – | 3 fold | –
